Measurements taken from patent US20240301067A1.

Experiments:
[1] = target: Human PD-1 on CHO-S cells (human) (UniProt Q15116); assay: FACS on CHO-S.hPro1.C6 cells
[2] = target: Cynomolgus monkey PD-1 on transiently transfected 293F cells (cynomolgus monkey); assay: FACS on cyno PD-1 transfected 293F cells, experiment 1
[3] = target: Cynomolgus monkey PD-1 on transiently transfected 293F cells (cynomolgus monkey); assay: FACS on cyno PD-1 transfected 293F cells, experiment 2
[4] = target: Human PD-1 on CHO-S cells (human) (UniProt Q15116); assay: FACS competition on CHO-S.hPro1.C6 cells; competitor hProL1.ECD.mFc 5 µg/mL
[5] = target: Cynomolgus PD-1 (soluble analyte in SPR, Table 11) (cynomolgus) (UniProt B0LAJ3); assay: SPR Biacore 8K; antibody captured on anti-human Fc chip, PD-1 injected; 1:1 fit
Chain of Cynomolgus PD-1 (soluble analyte in SPR, Table 11) (cynomolgus) (B0LAJ3 entry or part of it limits assumed): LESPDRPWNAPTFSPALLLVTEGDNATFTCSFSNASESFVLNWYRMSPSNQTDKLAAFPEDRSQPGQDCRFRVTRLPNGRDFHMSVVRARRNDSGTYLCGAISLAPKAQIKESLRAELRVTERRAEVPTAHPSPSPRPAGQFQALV

[6] = target: Human PD-1 (soluble analyte in SPR, Table 11) (human) (UniProt Q15116); assay: as above
Chain of Human PD-1 (soluble analyte in SPR, Table 11) (human) (Q15116 25-167 limits assumed): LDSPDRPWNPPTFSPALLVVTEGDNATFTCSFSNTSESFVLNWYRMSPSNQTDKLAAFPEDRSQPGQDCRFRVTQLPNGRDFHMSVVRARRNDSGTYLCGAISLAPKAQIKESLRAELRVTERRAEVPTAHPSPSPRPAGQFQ

[7] = target: Human PD-1 extracellular domain, mFc tag (human) (UniProt Q15116); assay: ELISA competition on coated hPro1.ECD.mFc; competitor hPro1L2.ECD.His; experiment 1
Chain of Human PD-1 extracellular domain, mFc tag (human) (Q15116 25-170): as the sequence (B0LAJ3 entry or part of it limits assumed) above, with E2D, A10P, L19V, A35T, R75Q, A144T counted along it

[8] = target: Human PD-1 extracellular domain, mFc tag (human) (UniProt Q15116); assay: ELISA competition on coated hPro1.ECD.mFc; competitor hPro1L2.ECD.His; experiment 2
[9] = target: Cynomolgus PD-1 extracellular domain, hFc tag (cynomolgus) (UniProt B0LAJ3); assay: ELISA competition on coated cynoPro1.ECD.hFc; competitor cynoProL1.ECD.hFc.biotin 2.5 µg/mL; experiment 1
Chain of Cynomolgus PD-1 extracellular domain, hFc tag (cynomolgus) (B0LAJ3 entry or part of it limits assumed): as the sequence (B0LAJ3 entry or part of it limits assumed) above

[10] = target: Cynomolgus PD-1 extracellular domain, hFc tag (cynomolgus) (UniProt B0LAJ3); assay: ELISA competition on coated cynoPro1.ECD.hFc; competitor cynoProL1.ECD.hFc.biotin 2.5 µg/mL; experiment 2

Chain of Human PD-1 on CHO-S cells (human) (Q15116 25-288): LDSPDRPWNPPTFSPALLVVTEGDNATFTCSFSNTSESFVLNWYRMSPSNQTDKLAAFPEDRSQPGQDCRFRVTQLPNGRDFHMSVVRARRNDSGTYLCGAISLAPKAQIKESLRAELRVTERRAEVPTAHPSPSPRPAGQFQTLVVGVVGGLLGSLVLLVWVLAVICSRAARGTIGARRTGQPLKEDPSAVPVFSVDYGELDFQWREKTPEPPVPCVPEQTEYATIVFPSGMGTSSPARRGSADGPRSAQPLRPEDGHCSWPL

How did the EC50 [1] turn out when “Benchmark antibody 1 (Opdivo, Nivolumab)” was run?
The EC50 was 0.409 to 0.749 nM.

What about the EC50 [2] of the same substance?
The EC50 was 0.55 nM.

What about the EC50 [3] of the same substance?
The EC50 was 1.98 nM.

What about the IC50 [4] of the same substance?
Its IC50 is 0.544 nM.

What about the Kd [5] of the same substance?
Its Kd is 2.23 nM.

What about the koff [5] of the same substance?
The koff was 0.000672 s⁻¹.

What about the kon [5] of the same substance?
The kon was 301000 M⁻¹ s⁻¹.

And the Kd [6]?
The Kd was 2.87 nM.

What about the koff [6] of the same substance?
Its koff is 0.00116 s⁻¹.

What about the kon [6] of the same substance?
The kon was 405000 M⁻¹ s⁻¹.

And the IC50 [7]?
Its IC50 is 0.95 nM.

What about the IC50 [8] of the same substance?
The IC50 was 0.534 nM.

And the IC50 [9]?
Its IC50 is 0.47 nM.

And the IC50 [10]?
Its IC50 is 0.585 nM.
